Experimental data: the Immune Epitope Database (IEDB)

Tests used:
[1] = target: HLA-B*53:01; assay: IEDB peptide-MHC binding, purified MHC/competitive/radioactivity; filed as Kd, often an IC50 or EC50 that approximates it; ≥ and ≤ were set here for values at or beyond the usual limits of such assays
[2] = target: HLA-B*07:02; assay: as above
[3] = target: HLA-B*35:01; assay: as above
[4] = target: HLA-B*54:01; assay: as above
[5] = target: HLA-B*51:01; assay: as above
[6] = target: HLA-B*07:02; assay: IEDB peptide-MHC binding, purified MHC/direct/fluorescence; filed as Kd, often an IC50 or EC50 that approximates it; ≥ and ≤ were set here for values at or beyond the usual limits of such assays; conditions: source organism: SARS-CoV1
[7] = target: HLA-A*02:01; assay: as above; conditions: source organism: SARS-CoV1
[8] = target: HLA-A*69:01; assay: as above; conditions: source organism: SARS-CoV1
[9] = target: HLA-A*68:02; assay: IEDB peptide-MHC binding, purified MHC/competitive/radioactivity; filed as Kd, often an IC50 or EC50 that approximates it; ≥ and ≤ were set here for values at or beyond the usual limits of such assays
[10] = target: HLA-A*11:01; assay: as above
[11] = target: HLA-A*02:02; assay: as above
[12] = target: HLA-A*31:01; assay: as above
[13] = target: HLA-B*40:02; assay: as above; conditions: source organism: Hepatitis C virus (isolate 1)
[14] = target: HLA-A*02:06; assay: as above
[15] = target: HLA-B*44:02; assay: as above; conditions: source organism: Hepatitis C virus (isolate 1)
[16] = target: HLA-A*68:01; assay: as above
[17] = target: HLA-A*33:01; assay: as above
[18] = target: HLA-B*18:01; assay: as above; conditions: source organism: Hepatitis C virus (isolate 1)
[19] = target: HLA-B*08:01; assay: as above; conditions: source organism: Hepatitis C virus (isolate 1)
[20] = target: HLA-A*02:01; assay: as above
[21] = target: HLA-A*02:03; assay: as above
[22] = target: HLA-B*44:03; assay: as above; conditions: source organism: Hepatitis C virus (isolate 1)
[23] = target: HLA-A*03:01; assay: as above
[24] = target: HLA-B*40:01; assay: as above; conditions: source organism: Hepatitis C virus (isolate 1)
[25] = source organism: Triticum aestivum
[26] = source organism: Vaccinia virus WR
[27] = source organism: SARS coronavirus Tor2
[28] = source organism: Hepatitis C virus (isolate 1)
[29] = source organism: Mammarenavirus guanaritoense

For QPYPQPQPQY, the Kd [1, 25] was 1620 nM, the Kd [2, 25] was ≥ 69600 nM and the Kd [3, 25] was 48 nM. The Kd [4, 25] was ≥ 69900 nM and the Kd [5, 25] was 10400 nM.
FPGLYGASI was tested, and the Kd [1, 26] was 9.2 nM, the Kd [2, 26] was 80.9 nM and the Kd [3, 26] was 506 nM. It also gave a Kd [4, 26] of 18.4 nM and a Kd [5, 26] of 137 nM.
Work on MPASWVMRI yielded a Kd [1, 27] of 1.24 nM, a Kd [3, 27] of 206 nM and a Kd [4, 27] of 32 nM. It also gave a Kd [5, 27] of 67.1 nM, a Kd [6] of 508 nM and a Kd [7] of 8190 nM. It also gave a Kd [8] of 17 nM.
ATDALMTGY was tested, and the Kd [9, 28] was ≥ 69800 nM, the Kd [10, 28] was 19.6 nM and the Kd [11, 28] was 1580 nM. For the same sequence, the Kd [12, 28] was ≥ 72300 nM, the Kd [1, 28] was ≥ 78200 nM and the Kd [13] was ≥ 77300 nM. The Kd [14, 28] was 5650 nM, the Kd [15] was ≥ 78000 nM and the Kd [16, 28] was ≥ 77700 nM. The Kd [17, 28] was ≥ 77700 nM, the Kd [18] was ≥ 77500 nM and the Kd [19] was ≥ 64700 nM. The Kd [2, 28] was ≥ 32900 nM, the Kd [20, 28] was 1450 nM and the Kd [21, 28] was 5920 nM. For the same sequence, the Kd [22] was ≥ 78200 nM, the Kd [3, 28] was ≥ 36400 nM and the Kd [4, 28] was ≥ 63100 nM. For the same sequence, the Kd [5, 28] was ≥ 77500 nM, the Kd [23, 28] was 3320 nM and the Kd [24] was ≥ 76200 nM.
With LPNTLVFQA the Kd [1, 29] was 1020 nM, the Kd [2, 29] was ≥ 38300 nM and the Kd [3, 29] was 82.8 nM. The Kd [4, 29] was 8.14 nM and the Kd [5, 29] was 4400 nM.
In the case of KPPISFPLCA, the Kd [1, 27] is reported as ≥ 31500 nM, the Kd [2, 27] is reported as 17200 nM and the Kd [3, 27] is reported as ≥ 42500 nM. It also gave a Kd [4, 27] of 3870 nM and a Kd [5, 27] of 9520 nM.
With EPISILDRI the Kd [1, 26] was 194 nM, the Kd [2, 26] was ≥ 28800 nM and the Kd [3, 26] was 4810 nM. For the same sequence, the Kd [4, 26] was 820 nM and the Kd [5, 26] was 37.3 nM.
Work on YPTNDIPSLF yielded a Kd [1, 26] of 7.67 nM, a Kd [2, 26] of 1970 nM and a Kd [3, 26] of 8.63 nM. It also gave a Kd [4, 26] of 473 nM and a Kd [5, 26] of 4270 nM.
With FPSTQRDYY the Kd [1, 26] was 1.15 nM, the Kd [2, 26] was ≥ 77500 nM and the Kd [3, 26] was 1.08 nM. For the same sequence, the Kd [4, 26] was 3940 nM and the Kd [5, 26] was ≥ 77500 nM.
APHGVVFLHV showed a Kd [1, 27] of 749 nM, a Kd [2, 27] of 254 nM and a Kd [3, 27] of 4360 nM. For the same sequence, the Kd [4, 27] was 288 nM and the Kd [5, 27] was 7810 nM.
With APGSPTNLEF the Kd [1, 26] was 556 nM, the Kd [2, 26] was 54.2 nM and the Kd [3, 26] was 850 nM. For the same sequence, the Kd [4, 26] was ≥ 39400 nM and the Kd [5, 26] was ≥ 69600 nM.
For TPNYMKLLVY, the Kd [1, 26] was 952 nM, the Kd [2, 26] was ≥ 47800 nM and the Kd [3, 26] was 48.1 nM. The Kd [4, 26] was 14600 nM and the Kd [5, 26] was ≥ 28600 nM.
ISIIVLFQR gave a Kd [9, 26] of 8930 nM, a Kd [10, 26] of 930 nM and a Kd [11, 26] of 6720 nM. The Kd [12, 26] was 1.12 nM, the Kd [1, 26] was ≥ 21500 nM and the Kd [14, 26] was 9070 nM. The Kd [16, 26] was 3.26 nM, the Kd [17, 26] was 252 nM and the Kd [2, 26] was 2220 nM. The Kd [20, 26] was 2400 nM, the Kd [21, 26] was 9050 nM and the Kd [3, 26] was ≥ 43400 nM. For the same sequence, the Kd [4, 26] was 7680 nM, the Kd [5, 26] was ≥ 21000 nM and the Kd [23, 26] was 689 nM.
